Publication PMC2659760

What was measured:
[1] = substrate: COc1ccc2cc(CN)ccc2c1; assay: Substrate activity with BPAO; type: biochemical, bovine; conditions: other: UV-vis spectrophotometry, pH 7.2 phosphate buffer, 30 °C
[2] = substrate: NCc1ccccc1; assay: Substrate activity with BPAO; type: biochemical, bovine; conditions: other: UV-vis spectrophotometry, pH 7.2 phosphate buffer, 30 °C

B1: bovine plasma amine oxidase (BPAO) (Bos taurus) (protein)
chain: REEGGVGSEEGVGKQCHPSLPPRCPSRSPSDQPWTHPDQSQLFADLSREELTTVMSFLTQQLGPDLVDAAQARPSDNCVFSVELQLPPKAAALAHLDRGSPPPAREALAIVFFGGQPQPNVTELVVGPLPQPSYMRDVTVERHGGPLPYYRRPVLLREYLDIDQMIFNRELPQAAGVLHHCCSYKQGGQKLLTMNSAPRGVQSGDRSTWFGIYYNITKGGPYLHPVGLELLVDHKALDPADWTVQKVFFQGRYYENLAQLEEQFEAGQVNVVVIPDDGTGGFWSLKSQVPPGPTPPLQFHPQGPRFSVQGNRVASSLWTFSFGLGAFSGPRVFDVRFQGERLAYEISLQEAGAVYGGNTPAAMLTRYMDSGFGMGYFATPLIRGVDCPYLATYMDWHFVVESQTPKTLHDAFCVFEQNKGLPLRRHHSDFLSHYFGGVAQTVLVFRSVSTMLNYDYVWDMVFYPNGAIEVKLHATGYISSAFLFGAARRYGNQVGEHTLGPVHTHSAHYKVDLDVGGLENWVWAEDMAFVPTAIPWSPEHQIQRLQVTRKQLETEEQAAFPLGGASPRYLYLASKQSNKWGHPRGYRIQTVSFAGGPMPQNSPMERAFSWGRYQLAITQRKETEPSSSSVFNQNDPWTPTVDFSDFINNETIAGKDLVAWVTAGFLHIPHAEDIPNTVTVGNGVGFFLRPYNFFDQEPSMDSADSIYFREGQDAGSCEINPLACLPQAATCAPDLPVFSHGGYPEY
Km [1]: 0.74±0.15 mM mM
kcat [1]: 1.15 ± 0.06 s⁻¹
kcat/Km [1]: 1550 M⁻¹ s⁻¹
Km [2]: 1.77±0.24 mM mM
kcat [2]: 1.23 ± 0.06 s⁻¹
kcat/Km [2]: 695 M⁻¹ s⁻¹
